This is an account of results in patent US20100249383A1, “Novel Ligand Involved In The Transmigration Of Leukocytes Across the Endothelium and Uses Therefor” (The Regents of The University of California and The Burnham …, priority 2001, published 2010).

Series [1] deals with T1, RAGE deglycosylated by PNGase F (bovine, UniProt Q28173 23-416, N-linked oligosaccharides removed by PNGase F (mass decreased by about 4500 daltons)).
T1 construct: also called deglycosylated RAGE; PNGase F digested RAGE
T1 sequence (looked up): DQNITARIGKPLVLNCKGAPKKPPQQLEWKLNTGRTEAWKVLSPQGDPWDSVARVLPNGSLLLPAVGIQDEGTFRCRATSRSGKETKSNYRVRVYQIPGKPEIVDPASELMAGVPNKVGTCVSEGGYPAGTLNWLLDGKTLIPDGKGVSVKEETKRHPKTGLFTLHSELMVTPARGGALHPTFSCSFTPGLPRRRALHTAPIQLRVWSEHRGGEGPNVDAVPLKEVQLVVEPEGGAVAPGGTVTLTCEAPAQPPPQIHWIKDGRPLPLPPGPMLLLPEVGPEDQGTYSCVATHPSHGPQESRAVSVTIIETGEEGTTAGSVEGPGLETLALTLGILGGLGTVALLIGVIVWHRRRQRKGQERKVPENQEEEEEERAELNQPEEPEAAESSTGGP
Put plainly: saturation binding of 125I amphoterin to immobilized RAGE deglycosylated by PNGase F. Here is the method:
(§1) Amphoterin was radioiodinated using Na ¹²⁵I and Iodo-Beads Iodinating Reagent (Pierce) to a specific activity of 5×10³ cpm/ng protein. Saturation binding experiments were done by a slight modification of the method of Hori et al (Hori at al., J. Biol. Chem., 270:25752-61 [1995]). Briefly, purified RAGE was immobilized on microliter wells and the wells blocked with 3% BSA. Wells were incubated at 4° C. overnight with increasing concentrations of ¹²⁵I amphoterin in HBSS containing 0.1% BSA in the presence or absence of desialylated carboxylate-enriched (COO⁻) or CONHMe bovine lung glycopeptides, or 20 μg/ml mAbGB3.1 or an unrelated anti-carbohydrate monoclonal antibody, or 100 fold excess of unlabeled amphoterin. Binding was also tested on RAGE deglycosylated by PNGase F under non-denaturing conditions. Wells were washed, bound amphoterin was eluted with 2 M NaCl, and radioactivity was measured using a gamma counter. Non-linear regression analysis was done using the GraphPad Prism program.
The binding of a single concentration of labeled ligand was also tested in presence of various concentrations of COO⁻ or neutral glycopeptides. […] Binding was also found to be reduced in presence of mAbGB3.1, while a non-relevant antibody is ineffective (FIG. 24, Panel C).

The target in series [2] is T2, RAGE from bovine lung (native, purified/immunoprecipitated) (bovine, UniProt Q28173 23-416, carries PNGaseF-sensitive carboxylated N-linked oligosaccharides).
T2 construct: Released from mAbGB3.1 beads after immunoprecipitation of bovine lung homogenate; also called bovine lung RAGE; bovine RAGE
T2 sequence (looked up): T1 sequence (looked up)
Put plainly: saturation binding of 125I amphoterin to immobilized RAGE in presence of soluble COO- glycopeptides. Here is the method:
as §1
(§2) Specific binding is defined as the total binding minus non-specific binding measured in presence of 100-fold excess of unlabeled amphoterin. The […] binding was 3-4% of total binding. Then, the possibility that amphoterin binding is dependent upon the N-glycans on RAGE was examined.

In series [3] the target is T2, RAGE from bovine lung (native, …). Kind of series: saturation binding of 125I amphoterin to RAGE immobilized on microtiter wells, non-linear regression. Here is the method:
as §1, §2

The target in series [4] is T3, human S100A9 (human, UniProt P06702 2-114, limits assumed).
T3 construct: also called MRP14; MRP9
T3 sequence (looked up): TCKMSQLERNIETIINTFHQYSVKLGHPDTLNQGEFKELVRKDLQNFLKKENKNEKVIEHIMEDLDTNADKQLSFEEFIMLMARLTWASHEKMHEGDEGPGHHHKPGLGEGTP
Kind of series: co-purification from human neutrophil cytosol. The text has this: Chem., 266:7706 [1991]). […] The proteins remained as heteromeric complexes through purification, were even retained on YM10 and YM30 ultrafiltration membranes, and could not be separated into individual proteins without denaturation. The molecular masses of the purified proteins as determined by SDS gels was 11 kDa and 14 kDa for S100A8 and S100A9 respectively (data not shown). […] Binding to BSA coupled asialo-COO⁻ bovine lung glycopeptides immobilized on microtiter plates was inhibited in presence of 0.3 M asialo-COO⁻ glycopeptides, but much less effectively by the asialo-CONHMe-glycopeptides. In FIG. 19, each point is the mean of two determinations.
All steps were carried out at 4° C., unless otherwise indicated. […] Briefly, 100 ml peripheral blood was obtained from healthy volunteers and neutrophils obtained by Ficoll-Hypaque centrifugation as indicated above. The cells were lysed in PBS containing 1 mM DTT, 1% NP40 and protease inhibitors, and subjected to ultracentrifugation at 160,000×g for 30 min. The protein in the supernatant was adjusted to 2 mg/ml with the above buffer, and the solution stirred on ice. Solid ammonium sulfate was slowly added to a final concentration of 75% (w/v) and stirred for 1 h. […] S100A8/A9 proteins eluted at 35-50% acetonitrile, and were >90% pure as determined by SDS gels.

Series [5] deals with the molecule itself. Kind of series: BS3 chemical cross-linking of neutrophil extracts, immunoblot. As to the method: In these experiments, 96-well plates were coated with 250 ng of BSA coupled […] asialo-COO⁻ lung glycopeptides for 4 h at 37° C. and blocked with 3% BSA in PBS overnight. Human neutrophil extracts were sequentially incubated in each of four wells for 30 min/well at 37° C. in leukocyte activation buffer (described above), in presence or absence of 200 μM […] asialo-COO⁻ glycopeptides or asialo-CONHMe-glycopeptides. After incubation, the supernatants from the incubation wells were collected and protein depletion was analyzed by immunoblotting using the respective antibodies. For detection of S100A8/A9 complexes, the proteins in the supernatants were stabilized by chemical cross-linking using bis-sulfosuccinimidyl suberate (BS³) as known in the art (See, Staros, Biochem., 21:3590 [1982]). Briefly, the cross linker was added from a fresh 2 mM stock solution to neutrophil lysates obtained as described above, to a final concentration of 200 μM, and the mixture was incubated at room temperature for 30 min. Reactions were quenched by the addition of 1 M Tris to a final concentration of 10 mM and samples were stored at −80° C., until they were assayed. Cross-linked samples were incubated with 2-mercaptoethanol prior to separation on SDS-PAGE. Since crude lysates were used in the cross-linking, it is conceivable that non-specific cross-linking could occur. […]
(In general: In western blotting, separated proteins are transferred to a membrane and probed.)

B1: amphoterin (baculovirus expressed rat amphoterin) (ligand, UniProt P63159 2-215, looked up)
chain: GKGDPKKPRGKMSSYAFFVQTCREEHKKKHPDASVNFSEFSKKCSERWKTMSAKEKGKFEDMAKADKARYEREMKTYIPPKGETKKKFKDPNAPKRPPSAFFLFCSEYRPKIKGEHPGLSIGDVAKKLGEMWNNTAADDKQPYEKKAAKLKEKYEKDIAAYRAKGKPDAAKKGVVKAEKSKKKKEEEDDEEDEEDEEEEEEEEDEDEEEDDDDE
modifications: radioiodinated (125I) in the binding assays
notes: the only purified amphoterin in the materials is the baculovirus expressed rat protein; also called recombinant amphoterin
In the case of B1, the results for the Kd in series [1], in series [2] and in series [3] were about 18.2 nM, about 12.6 nM and about 10.7 nM, respectively.

B2: human S100A8 (other, UniProt P05109 1-93, looked up)
chain: MLTELEKALNSIIDVYHKYSLIKGNFHAVYRDDLKKLLETECPQYIRKKGADVWFKELDINTDGAVNFQEFLILVIKMGVAAHKKSHEESHKE
notes: also called MRP8; CP-10
B2: the binding result in series [4] and in series [5] was “binds” each time.
